Data: US20030003482A1 (published 2003)

Target: T1, Human MRP14 (Homo sapiens, UniProt P06702 1-114, limits assumed)
T1 sequence: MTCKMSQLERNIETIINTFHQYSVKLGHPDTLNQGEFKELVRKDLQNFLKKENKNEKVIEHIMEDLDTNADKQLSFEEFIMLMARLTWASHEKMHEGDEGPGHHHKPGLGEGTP
Experiment: statement within the sandwich ELISA example (Example 5)
Procedure: In order to determine the amount of MRP8/MRP14 polypeptide in various wound fluids, wound fluid samples from patients suffering from chronic diabetic wound were collected, venous ulcers as well as wound fluids from wounds of healthy persons. Wound fluids were isolated as described in Example 2 by means of drainage. For the determination of MRP8/MRP14 content, Maxi-Sorb Immunoplates (96-well, Nunc, Wiesbaden, Germany) were coated with polyclonal rabbit antisera against MRP14 by incubating each well overnight at 4° C. with 50 μl of coating solution (anti-MRP14 antibody, 2 μg/ml, in 0.1 M NaHCO3, pH 9.5). […] After removal of the blocking reagent, 50 μl of diluted wound fluid samples (buffer A: PBS containing 0.1% Tween 20) were added and allowed to react with the immobilized capture antibody for 1 h at 37° C. and then washed (3×) with buffer A. Bound antigen was detected by incubation (1 h, 37° C.) of each well with 50 μl of a biotinylated monoclonal antibody against MRP14 (clone S36.48, Dianova, 125 ng/ml antibody in buffer A). […] MRP8 and MRP14 spontaneously form noncovalently associated complexes to a quantitative extent which are detected by the ELISA system. […] The total polypeptide content per probe was determined using the BCA assay.

B1: Human MRP8 (other)
chain: MLTELEKALNSIIDVYHKYSLIKGNFHAVYRDDLKKLLETECPQYIRKKGADVWFKELDINTDGAVNFQEFLILVIKMGVAAHKKSHEESHKE
notes: Natural protein in human wound fluid and wound biopsy tissue (Western blot); also called calgranulin A
B1: binds.
